Source: the Immune Epitope Database (IEDB)

Legend:
HLA-B*53:01 = assay: IEDB peptide-MHC binding, purified MHC/competitive/radioactivity; filed as Kd, often an IC50 or EC50 that approximates it; ≥ and ≤ were set here for values at or beyond the usual limits of such assays; conditions: source organism: Dengue virus 1 Brazil/97-11/1997
HLA-B*51:01 = assay: as above
HLA-A*23:01 = assay: as above
HLA-A*24:02 = assay: as above
HLA-B*08:01 = assay: as above
HLA-B*35:01 = assay: as above
HLA-A*30:01 = assay: as above
HLA-A*30:02 = assay: as above
HLA-A*26:01 = assay: as above
HLA-A*29:02 = assay: as above
HLA-A*01:01 = assay: as above
HLA-A*68:02 = assay: as above
HLA-A*02:01 = assay: IEDB peptide-MHC binding, purified MHC/competitive/fluorescence; filed as Kd, often an IC50 or EC50 that approximates it; ≥ and ≤ were set here for values at or beyond the usual limits of such assays; conditions: source organism: Vaccinia virus WR 65-16
HLA-B*57:01 = assay: IEDB peptide-MHC binding, purified MHC/direct/fluorescence; filed as Kd, often an IC50 or EC50 that approximates it; ≥ and ≤ were set here for values at or beyond the usual limits of such assays; conditions: source organism: Salmonella enterica
HLA-B*58:01 = assay: as above; conditions: source organism: Salmonella enterica
HLA-A*02:02 = assay: IEDB peptide-MHC binding, purified MHC/competitive/radioactivity; filed as Kd, often an IC50 or EC50 that approximates it; ≥ and ≤ were set here for values at or beyond the usual limits of such assays; conditions: source organism: Homo sapiens
HLA-A*02:06 = assay: as above
HLA-A*02:03 = assay: as above
[1] = source organism: Dengue virus 1 Brazil/97-11/1997
[2] = source organism: Dengue virus 3 Martinique/1243/1999
[3] = source organism: Lymphocytic choriomeningitis virus (strain Armstrong)
[4] = source organism: Dengue virus 4 Philippines/H241/1956
[5] = source organism: Vaccinia virus WR
[6] = source organism: SARS coronavirus Tor2
[7] = source organism: Mammarenavirus machupoense

With MASVEPHWI the Kd (HLA-B*53:01) was 1400 nM and the Kd (HLA-B*51:01; [1]) was 1790 nM.

MWLGARYLEF was tested, and the Kd (HLA-A*23:01; [2]) was 3.54 nM and the Kd (HLA-A*24:02; [2]) was 97.7 nM.

Sequence VNREGKIVGL has a Kd (HLA-B*08:01; [1]) of no less than 35600 nM.

For LRTTTVSGKL, the Kd (HLA-B*08:01; [2]) was 9540 nM.

With LPEIEDEVF the Kd (HLA-B*35:01; [1]) was 88.1 nM and the Kd (HLA-B*53:01) was 1240 nM.

With TFKTAHAKK the Kd (HLA-A*30:01; [1]) was 99.4 nM.

QYVRSGKDHV showed a Kd (HLA-A*30:02; [3]) of 1440 nM, a Kd (HLA-A*26:01; [3]) of no less than 69700 nM and a Kd (HLA-A*23:01; [3]) of no less than 50200 nM. The Kd (HLA-A*29:02; [3]) was no less than 71400 nM, the Kd (HLA-A*01:01; [3]) was no less than 70400 nM and the Kd (HLA-A*24:02; [3]) was no less than 70300 nM.

LMKMKKKTWL gave a Kd (HLA-B*08:01; [4]) of 24.1 nM.

In the case of SRHQRLHDE, the Kd (HLA-B*08:01; [5]) is reported as 453 nM.

Work on ASMAICSAV yielded a Kd (HLA-A*68:02; [4]) of 63.7 nM.

Sequence IPPTAGVLA has a Kd (HLA-B*51:01; [2]) of 6140 nM.

TARGARRMA gave a Kd (HLA-A*30:01; [1]) of 6300 nM.

Sequence KYKPVYSYV has a Kd (HLA-A*30:01; [5]) of 0.74 nM.

In the case of NLEKKITNV, the Kd (HLA-A*02:01) is reported as 216 nM.

Work on RSRCRLHHL yielded a Kd (HLA-B*57:01) of 3540 nM and a Kd (HLA-B*58:01) of 598 nM.

Sequence ALEAKIAQL has a Kd (HLA-A*68:02; source organism: Homo sapiens) of 7300 nM, a Kd (HLA-A*02:02) of 14.8 nM and a Kd (HLA-A*02:06; source organism: Homo sapiens) of 1100 nM. For the same sequence, the Kd (HLA-A*02:03; source organism: Homo sapiens) was 46.7 nM.

With TSSMRGVYY the Kd (HLA-A*30:02; [6]) was 124 nM, the Kd (HLA-A*26:01; [6]) was 8300 nM and the Kd (HLA-A*23:01; [6]) was no less than 77800 nM. For the same sequence, the Kd (HLA-A*29:02; [6]) was 263 nM, the Kd (HLA-A*01:01; [6]) was 69.3 nM and the Kd (HLA-A*24:02; [6]) was no less than 77600 nM.

RFKTKGRYNL gave a Kd (HLA-A*23:01; [7]) of 87.5 nM, a Kd (HLA-A*29:02; [7]) of 104 nM and a Kd (HLA-A*24:02; [7]) of 579 nM.

SVYTTMFGGV was tested, and the Kd (HLA-A*68:02; [4]) was 9.63 nM, the Kd (HLA-A*02:06; [4]) was 1.96 nM and the Kd (HLA-A*02:03; [4]) was 8.23 nM.

RWGLLLALL gave a Kd (HLA-A*24:02; source organism: Homo sapiens) of 4.5 nM.

In the case of ALRSRIREL, the Kd (HLA-B*08:01; [5]) is reported as 0.455 nM.

For LAIMAVFKM, the Kd (HLA-B*35:01; [4]) was 22.2 nM.

LFLAFVVFL was tested, and the Kd (HLA-A*30:02; [6]) was no less than 34300 nM, the Kd (HLA-A*26:01; [6]) was 571 nM and the Kd (HLA-A*23:01; [6]) was 1880 nM. It also gave a Kd (HLA-A*29:02; [6]) of 7980 nM, a Kd (HLA-A*01:01; [6]) of 812 nM and a Kd (HLA-A*24:02; [6]) of no less than 29900 nM.

QKQTQRSGVL was tested, and the Kd (HLA-B*08:01; [2]) was 5800 nM.

For NYCEGTTVVI, the Kd (HLA-A*23:01; [2]) was 101 nM and the Kd (HLA-A*24:02; [2]) was 43.4 nM.
